The results in this text go back to patent US20160144027A1 (SAMSUNG ELECTRONICS, published 2016).

For this test, the target named is T1, human c-Met/Fc fusion protein (R&D Systems) (human, UniProt P08581 25-932).
T1 construct: Purchased reagent coated on ELISA plates; also called human c-Met/Fc protein; not shown: Fc part of the purchased fusion
In words: ELISA, hybridoma culture on plate-coated human c-Met/Fc fusion protein (2 ug/mL). The protocol: Human c-Met/Fc fusion protein was seeded in an amount of 50 μL (2 μg/mL)/well to microtiter plates and allowed to adhere to the surface of each well. The antibody that remained unbound was removed by washing.
The hybridoma cell culture obtained in Reference Example 1.1.2 was added in an amount of 50 μL to each well of the plates and incubated for 1 hour. The cells remaining unreacted were washed out with a sufficient amount of Tris-buffered saline and Tween 20 (TBST). Goat anti-mouse IgG-horseradish peroxidase (HRP) was added to the plates and incubated for 1 hour at room temperature. The plates were washed with a sufficient amount of TBST, followed by reacting the peroxidase with a substrate (OPD). Absorbance at 450 nm was measured on an ELISA reader.

T1 sequence (P08581 25-932): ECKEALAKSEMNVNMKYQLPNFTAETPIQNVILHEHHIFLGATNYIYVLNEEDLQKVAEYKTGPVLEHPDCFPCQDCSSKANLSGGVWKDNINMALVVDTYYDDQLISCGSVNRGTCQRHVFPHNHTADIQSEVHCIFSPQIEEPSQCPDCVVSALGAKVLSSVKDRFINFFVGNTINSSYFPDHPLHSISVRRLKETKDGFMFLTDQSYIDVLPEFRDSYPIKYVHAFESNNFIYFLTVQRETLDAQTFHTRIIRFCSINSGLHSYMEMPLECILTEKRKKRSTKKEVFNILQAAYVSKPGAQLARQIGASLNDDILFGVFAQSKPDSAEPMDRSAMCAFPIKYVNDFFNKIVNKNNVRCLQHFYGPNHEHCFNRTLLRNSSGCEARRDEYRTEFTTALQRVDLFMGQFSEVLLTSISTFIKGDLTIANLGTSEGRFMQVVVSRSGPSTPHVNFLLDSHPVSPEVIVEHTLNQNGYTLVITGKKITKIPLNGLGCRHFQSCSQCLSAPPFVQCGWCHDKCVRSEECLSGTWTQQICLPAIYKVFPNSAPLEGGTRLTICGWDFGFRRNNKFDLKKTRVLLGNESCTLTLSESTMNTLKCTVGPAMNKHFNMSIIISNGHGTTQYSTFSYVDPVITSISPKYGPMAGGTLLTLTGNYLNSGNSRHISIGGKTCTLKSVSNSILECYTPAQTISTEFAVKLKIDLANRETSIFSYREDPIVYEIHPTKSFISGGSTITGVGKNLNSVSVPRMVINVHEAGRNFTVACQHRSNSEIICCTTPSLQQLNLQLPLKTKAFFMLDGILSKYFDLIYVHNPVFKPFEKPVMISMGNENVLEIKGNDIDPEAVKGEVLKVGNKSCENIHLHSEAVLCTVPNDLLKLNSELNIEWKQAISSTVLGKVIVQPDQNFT

B1: AbF46, a mouse antibody to c-Met (antibody, V domains shown)
VH: EVKLVESGGGLVQPGGSLRLSCATSGFTFTDYYMSWVRQPPGKALEWLGFIRNKANGYTTEYSASVKGRFTISRDNSQSILYLQMDTLRAEDSATYYCARDNWFAYWGQGTLVTVSA
VL: DILMTQSPSSLTVSAGEKVTMSCKSSQSLLASGNQNNYLAWHQQKPGRSPKMLIIWASTRVSGVPDRFIGSGSGTDFTLTINSVQAEDLAVYYCQQSYSAPLTFGAGTKLELK
notes: Mouse monoclonal antibody from the single hybridoma clone chosen by ELISA; In the screening assay it was present as hybridoma culture supernatant; also called monoclonal antibody of hybridoma KCLRF-BP-00220
In the case of B1, the binding result is “binds”.
